# Laboratory results published in patent US20170184604A1, “DD1ALPHA RECEPTOR AND USES THEREOF IN IMMUNE DISORDERS” (THE GENERAL HOSPITAL CORPORATION, priority 2014, published 2017).
# Experiments:
# PD-1 = biological target: T1, PD-1 (Homo sapiens, UniProt Q15116); assay: Ig fusion protein-pull down assay; type: binding
# T1 construct: full length human PD-1 and Tim3 cDNA (Sino biological) were cloned into pcDNA3.1(−) tagged with HA at C-terminus; host or cells: HEK293T
# Procedure: FIGS. 6A-6E show physical association of DD1α with PD1 but not with PD-L1. (FIG. 6A) Interaction of DD1α with PD1 or DD1α. […] The bound Ig fusion proteins were detected with anti-Ig-APC. Empty vector (pcDNA3.1)-transfected cells stained with Ig proteins are shown as a negative control (gray filled) and other staining is shown as black open. (FIG. 6B) DD1α binds to both DD1α and PD1 on CD4+ T cells. Purified CD4+ T cells from Wt and DD1α−/− mice were assayed for binding to Ig fused DD1α or PD1 proteins. Cells were incubated with DD1α-Ig (open), PD1-Ig (open), or control Ig proteins (gray filled) and the bound Ig fusion proteins were detected by anti-Ig-APC. […] The bound Ig fusion proteins were detected by anti-Ig-APC. Binding amounts were determined by percentage of APC positive cells compared to control Ig protein-bound cells. (FIG. 6C) Ig-pulldown experiments show DD1α interaction with both DD1α and PD1. […] The bead bound proteins were eluted and determined by western blot analysis using anti-HA antibody (asterisks). […] The bead bound proteins were eluted and detected by western blot analysis with anti-DD1α or anti-PD1 antibody (asterisk). […] The levels of indicated proteins were analyzed by western blot analysis. Total RNAs from control siRNA or p53 siRNA transfected MCF7 cells were assessed for mRNA levels of PD1 or PD-L1 by real-time quantitative PCR. […]
# DD1α = assay: Ig fusion protein-pull down assay; type: binding, human
# Procedure: FIGS. 6A-6E show physical association of DD1α with PD1 but not with PD-L1. (FIG. 6A) Interaction of DD1α with PD1 or DD1α. […] The bound Ig fusion proteins were detected with anti-Ig-APC. Empty vector (pcDNA3.1)-transfected cells stained with Ig proteins are shown as a negative control (gray filled) and other staining is shown as black open. (FIG. 6B) DD1α binds to both DD1α and PD1 on CD4+ T cells. Purified CD4+ T cells from Wt and DD1α−/− mice were assayed for binding to Ig fused DD1α or PD1 proteins. Cells were incubated with DD1α-Ig (open), PD1-Ig (open), or control Ig proteins (gray filled) and the bound Ig fusion proteins were detected by anti-Ig-APC. […] The bound Ig fusion proteins were detected by anti-Ig-APC. Binding amounts were determined by percentage of APC positive cells compared to control Ig protein-bound cells. (FIG. 6C) Ig-pulldown experiments show DD1α interaction with both DD1α and PD1. […] The bead bound proteins were eluted and determined by western blot analysis using anti-HA antibody (asterisks). (FIG. 6D) Ig fusion proteins (control Ig, DD1α-Ig, or PD1-Ig) were incubated with lysates from Nutlin-3-treated MCF7 cells and pulled down using protein A/G agarose. The bead bound proteins were eluted and detected by western blot analysis with anti-DD1α or anti-PD1 antibody (asterisk). (FIG. 6E) p53-mediated induction of PD1 and PD-L1. MCF7 cells were treated by Nutlin-3 (10 μM) for 1 to 3 days. MCF7 cells were transfected with control siRNA or p53 siRNA for 24 hours and treated with CPT (500 nM) or DMSO (control) for 1 and 2 days. The levels of indicated proteins were analyzed by western blot analysis. Total RNAs from control siRNA or p53 siRNA transfected MCF7 cells were assessed for mRNA levels of PD1 or PD-L1 by real-time quantitative PCR. PD1 or PD-L1 mRNA levels were normalized to 36B4 expression and shown as mean±SD (n=3). Protein levels of PD1 and PD-L1 were examined in EJ-p53tet cells in the absence or presence of tetracycline (tet), ZR75-1 cells treated with CPT (500 nM), or A375 cells exposed to 13 Gy ionizing irradiation for the indicated times.
# Ig fusion proteins (control Ig, DD1α-Ig, or PD1-Ig) were incubated with lysates from Nutlin-3-treated MCF7 cells and pulled down using proten A/G agarose. The bead bound proteins were eluted and detected by western blot analysis with anti-DD1α or anti-PD1 antibody.
# Based on the results that both PD-1 and DD1α receptors on T cells contribute to the co-inhibitory roles for DD1α(FIG. 5), it was tested whether DD1α could physically and functionally associate with PD-1 receptor. […] To confirm the specificity of this interaction, the inventors carried out Ig fusion protein-pull down assays using lysates from PD-1, DD1α, or TIM3-transfected 293T cells. […]
# [1] = lysates from transfected 293T cells
# [2] = lysates of Nutlin-3-treated MCF7 cells
# DD1α, sequence (Q9H7M9 33-311): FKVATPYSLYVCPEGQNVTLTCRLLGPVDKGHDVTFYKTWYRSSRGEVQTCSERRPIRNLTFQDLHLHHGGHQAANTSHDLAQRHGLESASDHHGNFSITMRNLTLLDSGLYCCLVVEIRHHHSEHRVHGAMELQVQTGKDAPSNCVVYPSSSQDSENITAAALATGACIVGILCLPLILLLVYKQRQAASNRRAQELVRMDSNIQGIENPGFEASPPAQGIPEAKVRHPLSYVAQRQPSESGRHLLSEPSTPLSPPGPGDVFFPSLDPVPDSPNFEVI
# T1 sequence (Q15116 25-288): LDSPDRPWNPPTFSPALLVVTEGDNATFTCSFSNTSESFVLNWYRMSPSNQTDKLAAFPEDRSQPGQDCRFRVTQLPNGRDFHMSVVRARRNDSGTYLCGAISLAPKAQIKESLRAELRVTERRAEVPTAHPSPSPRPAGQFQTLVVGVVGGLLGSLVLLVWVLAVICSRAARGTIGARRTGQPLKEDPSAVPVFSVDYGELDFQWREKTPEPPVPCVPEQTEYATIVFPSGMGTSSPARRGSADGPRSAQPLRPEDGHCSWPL
substance,measurement,setting,value
DD1α-Ig: the extracellular region of DD1α fused with the immunoglobulin G Fc segment,pull down of PD-1,PD-1; [1],pulled down
same,pull down of endogenous PD-1,PD-1; [2],found
same,pull down of DD1α,DD1α; [1],pulled down
same,pull down of endogenous DD1α receptor,DD1α; [2],detected
